Laboratory results from US20240075158A1 (JIANGSU HENGRUI PHARMACEUTICAL, published 2024).

B1: 25G7-(scdsFv)-PE38KDEL (scFv)
scFv: EVQLVESGGGLVQPGGSLRLSCAASGFTFSDYGMHWVRQAPGKCLEWVAFISSGSSIIYYADIVKGRSTISRDNAKNTLYLQMNSLRAEDTAVYYCTRGNKRGFFDYWGQGTLVTVSSGGGGSGGGGSGGGGSEIVLTQSPATLSLSPGERATLSCRASSSVPYMYWYQQKPGQAPRLLIYLTSNLASGIPARFSGSGSGTDFTLTISSLEPEDFAVYYCQQWRAYPPMLTFGCGTKVEIKASGGPEEGGSLAALTAHQACHLPLETFTRHRQPRGWEQLEQCGYPVQRLVALYLAARLSWNQVDQVIRNALASPGSGGDLGEAIREQPEQARLALTLAAAESERFVRQGTGNDEAGAANGPADSGDALLERNYPTGAEFLGDGGDVSFSTRGTQNWTVERLLQAHRQLEERGYVFVGYHGTFLEAAQSIVFGGVRARSQDLDAIWRGFYIAGDPALAYGYAQDQEPDARGRIRNGALLRVYVPRSSLPGFYRTSLTLAAPEAAGEVERLIGHPLPLRLDAITGPEEEGGRLETILGWPLAERTVVIPSAIPTDPRNVGGDLDPSSIPDKEQAISALPDYASQPGKPPKDEL

Tests used:
[1] = target: human IL-4R overexpressed on glioblastoma cells (LN229-IL4R, U87-IL4R, U251-IL4R) (human) (UniProt P24394); assay: cell-based or functional assay
[2] = target: human IL-4R overexpressed on glioblastoma cells (LN229-IL4R, U87-IL4R, U251-IL4R) (human) (UniProt P24394); assay: flow cytometry, U87-IL4R cells, 20 ug/mL
[3] = target: human IL-4R overexpressed on glioblastoma cells (LN229-IL4R, U87-IL4R, U251-IL4R) (human) (UniProt P24394); assay: flow cytometry, U251-IL4R cells, 20 ug/mL
[4] = target: human IL-4R overexpressed on glioblastoma cells (LN229-IL4R, U87-IL4R, U251-IL4R) (human) (UniProt P24394); assay: flow cytometry, LN229-IL4R cells, 20 ug/mL
[5] = target: human IL-4R overexpressed on glioblastoma cells (LN229-IL4R, U87-IL4R, U251-IL4R) (human) (UniProt P24394); assay: flow cytometry, U87-IL4R cells, 0.027435 ug/mL
[6] = target: human IL-4R overexpressed on glioblastoma cells (LN229-IL4R, U87-IL4R, U251-IL4R) (human) (UniProt P24394); assay: flow cytometry, U87-IL4R cells, 0.082305 ug/mL
[7] = target: human IL-4R overexpressed on glioblastoma cells (LN229-IL4R, U87-IL4R, U251-IL4R) (human) (UniProt P24394); assay: flow cytometry, U87-IL4R cells, 0.246914 ug/mL
[8] = target: human IL-4R overexpressed on glioblastoma cells (LN229-IL4R, U87-IL4R, U251-IL4R) (human) (UniProt P24394); assay: flow cytometry, U87-IL4R cells, 0.740741 ug/mL
[9] = target: human IL-4R overexpressed on glioblastoma cells (LN229-IL4R, U87-IL4R, U251-IL4R) (human) (UniProt P24394); assay: flow cytometry, U87-IL4R cells, 2.222222 ug/mL
[10] = target: human IL-4R overexpressed on glioblastoma cells (LN229-IL4R, U87-IL4R, U251-IL4R) (human) (UniProt P24394); assay: flow cytometry, U87-IL4R cells, 6.666667 ug/mL
[11] = target: human IL-4R overexpressed on glioblastoma cells (LN229-IL4R, U87-IL4R, U251-IL4R) (human) (UniProt P24394); assay: flow cytometry, U251-IL4R cells, 0.027435 ug/mL
[12] = target: human IL-4R overexpressed on glioblastoma cells (LN229-IL4R, U87-IL4R, U251-IL4R) (human) (UniProt P24394); assay: flow cytometry, U251-IL4R cells, 0.082305 ug/mL
[13] = target: human IL-4R overexpressed on glioblastoma cells (LN229-IL4R, U87-IL4R, U251-IL4R) (human) (UniProt P24394); assay: flow cytometry, U251-IL4R cells, 0.246914 ug/mL
[14] = target: human IL-4R overexpressed on glioblastoma cells (LN229-IL4R, U87-IL4R, U251-IL4R) (human) (UniProt P24394); assay: flow cytometry, U251-IL4R cells, 0.740741 ug/mL
[15] = target: human IL-4R overexpressed on glioblastoma cells (LN229-IL4R, U87-IL4R, U251-IL4R) (human) (UniProt P24394); assay: flow cytometry, U251-IL4R cells, 2.222222 ug/mL
[16] = target: human IL-4R overexpressed on glioblastoma cells (LN229-IL4R, U87-IL4R, U251-IL4R) (human) (UniProt P24394); assay: flow cytometry, U251-IL4R cells, 6.666667 ug/mL
[17] = target: human IL-4R overexpressed on glioblastoma cells (LN229-IL4R, U87-IL4R, U251-IL4R) (human) (UniProt P24394); assay: flow cytometry, LN229-IL4R cells, 0.027435 ug/mL
[18] = target: human IL-4R overexpressed on glioblastoma cells (LN229-IL4R, U87-IL4R, U251-IL4R) (human) (UniProt P24394); assay: flow cytometry, LN229-IL4R cells, 0.082305 ug/mL
[19] = target: human IL-4R overexpressed on glioblastoma cells (LN229-IL4R, U87-IL4R, U251-IL4R) (human) (UniProt P24394); assay: flow cytometry, LN229-IL4R cells, 0.246914 ug/mL
[20] = target: human IL-4R overexpressed on glioblastoma cells (LN229-IL4R, U87-IL4R, U251-IL4R) (human) (UniProt P24394); assay: flow cytometry, LN229-IL4R cells, 0.740741 ug/mL
[21] = target: human IL-4R overexpressed on glioblastoma cells (LN229-IL4R, U87-IL4R, U251-IL4R) (human) (UniProt P24394); assay: flow cytometry, LN229-IL4R cells, 2.222222 ug/mL
[22] = target: human IL-4R overexpressed on glioblastoma cells (LN229-IL4R, U87-IL4R, U251-IL4R) (human) (UniProt P24394); assay: flow cytometry, LN229-IL4R cells, 6.666667 ug/mL
[23] = target: rhIL-4R-Fc (ILR-H5253, Acro) (human) (UniProt P24394); assay: SPR Biacore 8K, rhIL-4R-Fc captured by anti-human IgG on CM5, immunotoxin as analyte
[24] = target: T1, rhIL-4R-Fc (ILR-H5253, Acro) (human, UniProt P24394 26-232)
T1 sequence: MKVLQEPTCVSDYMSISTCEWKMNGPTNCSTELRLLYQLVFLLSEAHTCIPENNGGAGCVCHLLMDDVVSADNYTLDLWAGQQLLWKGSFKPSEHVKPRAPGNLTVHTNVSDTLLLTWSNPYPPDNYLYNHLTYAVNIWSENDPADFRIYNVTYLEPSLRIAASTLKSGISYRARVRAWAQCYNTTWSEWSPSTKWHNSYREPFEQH

| Molecule | Mean MFI [2] [MFI] | Mean MFI [3] [MFI] | Mean MFI [4] [MFI] | Mean MFI [5] [MFI] | Mean MFI [6] [MFI] | Mean MFI [7] [MFI] | Mean MFI [8] [MFI] | Mean MFI [9] [MFI] | Mean MFI [10] [MFI] | Mean MFI [11] [MFI] | Mean MFI [12] [MFI] | Mean MFI [13] [MFI] | Mean MFI [14] [MFI] | Mean MFI [15] [MFI] | Mean MFI [16] [MFI] | Mean MFI [17] [MFI] | Mean MFI [18] [MFI] | Mean MFI [19] [MFI] | Mean MFI [20] [MFI] | Mean MFI [21] [MFI] | also measured |
| --- | --- | --- | --- | --- | --- | --- | --- | --- | --- | --- | --- | --- | --- | --- | --- | --- | --- | --- | --- | --- | --- |
| MDNA55 (ligand) | 32700 | 22600 | 24300 | 9120 | 12000 | 17100 | 21600 | 25300 | 29700 | 3180 | 5860 | 8130 | 10700 | 13700 | 17500 | 4470 | 8310 | 12400 | 16200 | 19400 | in vitro killing (CTG cell viability), LN229-IL4R cells [1]: 80%; Mean MFI [22]: 21100 MFI; Kd [23]: 0.439 nM; koff [23]: 0.0029 s⁻¹; kon [23]: 6.62e+06 M⁻¹ s⁻¹ |
| hIgG1 isotype control (antibody) | 318 | 275 | 231 | 588 | 394 | 322 | 339 | 334 | 306 | 263 | 274 | 287 | 284 | 282 | 288 | 352 | 318 | 300 | 286 | 361 | Mean MFI [22]: 244 MFI |
| B1 | – | – | – | – | – | – | – | – | – | – | – | – | – | – | – | – | – | – | – | – | Kd [24]: 0.101 nM; koff [24]: 0.000279 s⁻¹; kon [24]: 2.77e+06 M⁻¹ s⁻¹ |
